Values belong to the binder of their own block, whether it stands above or below them.
What was measured:
human insulin = human insulin (human, UniProt P01308 25-54; P01308 90-110, limits assumed); assay: screening of a human naive phage library; assay not named here
[1] = target: T1, human insulin-like growth factor II (human, UniProt P01344 25-91); assay: ELISA on IGF-II, one Fab concentration (not given)
T1 construct: also called IGF-II; IGF II
Description: (§1) ELISA Binding Assay. Antigen was coated on narrow-well, 96-well plate at 50 ng/well overnight at 4° C. For phage ELISA, 10¹⁰ phage from each round of panning was incubated with antigen. Bound phage was detected with anti-M13-HRP polyclonal antibody (Pharmacia, Piscataway, N.J.). For soluble Fab binding assay, anti-Flag HRP conjugate was used to detect the binding.

[2] = target: T2, recombinant human insulin-like growth factor I (human, UniProt P05019 49-118); assay: competition ELISA: m706 at 100 nM against the binding of IGF-I (50 nM) to soluble IGF-IR
T2 construct: also called IGF-I; IGF I
T2 sequence (P05019 49-118 limits assumed): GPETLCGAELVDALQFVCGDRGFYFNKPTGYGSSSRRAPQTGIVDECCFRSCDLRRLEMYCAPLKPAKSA

[3] = target: T2, recombinant human insulin-like growth …; assay: competition ELISA: m708 at 400 nM against the binding of IGF-I (50 nM) to soluble IGF-IR
[4] = target: T1, human insulin-like growth factor II; assay: method not stated (FIG. 9)
[5] = target: T2, recombinant human insulin-like growth …; assay: ELISA, Fab titrated on IGF-I
Description: as §1

[6] = target: T2, recombinant human insulin-like growth …; assay: ELISA on IGF-I, one Fab concentration (not given), duplicate bars
Description: as §1

T1 sequence (P01344 25-91 limits assumed): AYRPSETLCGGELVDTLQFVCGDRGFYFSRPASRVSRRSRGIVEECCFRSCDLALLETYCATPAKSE
Sequence of human insulin (P01308 25-54 limits assumed, chain 1 of 2): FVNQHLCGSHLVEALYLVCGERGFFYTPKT
Sequence of human insulin (P01308 90-110 limits assumed, chain 2 of 2): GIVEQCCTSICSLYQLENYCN

B2: m708 Fab (Fab, V domains shown)
VH: QVQLQQSGAEVKKPGSSVKVSCKASGGTFSSYAISWVRQAPGQGLEWMGGIIPILGIANYAQKFQGRVTITADESTSTAYMELSSLRSEDTAVYYCARGPRGYSYNFDYWGQGTLVTVSS
VL: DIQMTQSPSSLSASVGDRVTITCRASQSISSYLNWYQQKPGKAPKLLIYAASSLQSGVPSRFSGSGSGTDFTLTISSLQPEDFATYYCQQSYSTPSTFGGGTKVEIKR
notes: also called No. 8
binding result [3]: binds

B3: m708.2 IgG1 (antibody, V domains shown)
VH: QVQLQQSGAEVKKPGSSVKVSCKASGGTFSSYAISWVRQAPGQGLEWMGGIIPILGIANYAQKFQGRVTITADESTSTAYMELSSLRSEDTAVYYCARGPRGYSYNFDYWGQGTLVTVSS
VL: DIQMTQSPSSLSASVGDRVTIACRASQTISRYLNWYQQKPGKAPKLLIYAASSLQSGVSSRFSGSGSGTEFTLTISSLQPEDFATYFCQQTYSPPITFGQGTRLEIKR
notes: also called IgG708.2
Kd [4]: ~0.08 nM

B4: m708.2 Fab (Fab, V domains shown)
VH: QVQLQQSGAEVKKPGSSVKVSCKASGGTFSSYAISWVRQAPGQGLEWMGGIIPILGIANYAQKFQGRVTITADESTSTAYMELSSLRSEDTAVYYCARGPRGYSYNFDYWGQGTLVTVSS
VL: DIQMTQSPSSLSASVGDRVTIACRASQTISRYLNWYQQKPGKAPKLLIYAASSLQSGVSSRFSGSGSGTEFTLTISSLQPEDFATYFCQQTYSPPITFGQGTRLEIKR
notes: also called clone m708.2
binding result [5]: binds

Next, values leading:

binding result (human insulin): no binding
binding result [1]: no binding
binding result [2]: binds
B1: m706 Fab (Fab, V domains shown)
VH: EVQLVQSGVDVKKPGSSVKVSCKASGGTFSSYAISWVRQAPGQGLEWMGGIIPIFGTANYAQKFQGRVTITADESASTAYMELSSLRSEDTAVYYCASGYEGPLWAFDIWGQGTMVTVSS
VL: SQSVLTQPPSVSAAPGQRVSISCSGSSSNIGNYHVSWYQHLPGRAPKLLIYDNSKRPSGIPDRFSGSKSGTSATLDITGLQTGDEGDYYCATWDTSLRWVFGTGTKVTVL
notes: also called No. 6; IGF-I specific mAb

binding result (human insulin): no binding
binding result [1]: no binding
binding result [6]: binds
B5: m705 Fab (Fab, V domains shown)
VH: QVQLVQSGVEVKKPGASVKVPCKASGYTFTSYYMHWVRQAPGQGLEWMGIINPSGGSTSYAQKFQGRVTMTRDTSTSTVYMELSSLRSEDTAVYYCARDDFWSGAVGMDVWGQGTTVTVSS
VL: DIQMTQSPATLSLSPGERATLSCRASQDVGSDLAWYQQKPGQPPRLLVSDASNRATGIPARFSGSGSGTDFKLTINSLEPEDSAVYYCQQRRRWPPGATFGGGTKVEIKR
notes: also called No. 5; IGF-I specific mAb

Source: patent publication US20100055033A1 (GOVERNMENT OF THE UNITED STATES OF AMERICA AS REPRESENTED …, published 2010)
